Data reported in publication PMC3322551.

Biological target: porcine plasminogen (porcine)
Assay: SPR

Work on “F3_(P146/232ΔR), strain 232 F3_(P146) without its C-terminal arginine (domain or fragment)” yielded a Kd of 220 nM and a kon of 13000 M⁻¹ s⁻¹.

“F3_(P146/JΔK), strain J F3_(P146) without its C-terminal lysine (domain or fragment)” gave a Kd of 210 nM and a kon of 13000 M⁻¹ s⁻¹.

In the case of “F3_(P146/232), recombinant C-terminal fragment of P146 (Mhp684) of Mycoplasma hyopneumoniae strain 232 (domain or fragment)”, the Kd is reported as 46 nM and the kon is reported as 170000 M⁻¹ s⁻¹.

Work on “F3_(P146/J), recombinant C-terminal fragment of P146 (MHJ_0663) of Mycoplasma hyopneumoniae strain J (domain or fragment)” yielded a Kd of 39 nM and a kon of 46000 M⁻¹ s⁻¹.
